{"source": "patent US20250034601A1", "about": "“HETERODIMERIC BENZALDEHYDE SYNTHASE, METHODS OF PRODUCING, AND USES THEREOF” (Purdue Research Foundation, priority 2021, published 2025)", "molecules": {"B1": {"name": "PhBS: heterodimeric Petunia hybrida benzaldehyde synthase of PhBSα (SEQ ID NO: 1) and PhBSβ (SEQ ID NO: 2) subunits, 1:1 ratio (protein, listed as Petunia hybrida)", "alpha": "MEKQTQARFLEPWRDLKGKVVMVTGASSGIGLDLCLDLAKAGCKIIAAARRVDRLKSLCNQINAAADDDDDNNRAVAVELDVSANGDAIEAAVKEAWGAFGRIDALVNNAGVRGTVHSPLELTEEECHNTFRTNLTGTWLVSKYVCKFMRDAKQGGSVINISSIAGLNRGQLPGGLAYVSSKGAVNMVTKVMALELGVDKIRVNSISPGLFKSEITQGLIQKEWLNNVAMRTIPLRTHGNSADPALTSVVRYLIHDSSEYVSGNLFIVDAGATLPGVPIFSSL", "beta": "MENSGKKVLLTSNGDDICNNIAYHLAQRGCQLVLMGNESQLKSVAEMIKQSLGGSAAVEVVGLDMEEDREAAFEEAVDKAWKIFGKLDALVNCYSYEGKMQDPLQLIEEEFKKIVKINFMAGWYLMKCISKKMRDDKSGGSIVFLTSIIGAERGIYQGAAAYGSCLGGIQQLVRLAAIELGKHQIRVNGISRGLHLQDEYPKAVGLERAEKMTKEAAPLNRWLDVKKDLASTVIYLISDDSRYMTGTSIFVDGAQSLVRPRMRSYM"}}, "key": {"N. benthamiana leaves": {"test_system": "N. benthamiana leaves", "test": "Reconstitution of benzaldehyde biosynthetic pathway in N. benthamiana leaves, benzylalcohol formation", "type": "in vivo, Nicotiana benthamiana", "conditions": "150 mM Phe feeding for 24 hours, after Viscozyme treatment; means ± SE, n=5", "text": "In addition, the complete benzaldehyde β-oxidative biosynthetic pathway was reconstituted in N. benthamiana by expressing together with the PhBS four additional genes encoding phenylalanine ammonia lyase 1 (PhPAL1), PhCNL, PhCHD and PhKAT. Klempien et al. (2012), supra; Qualley et al., Completion of the core 0-oxidative pathway of benzoic acid biosynthesis in plants. Proceedings of the National Acad of Sciences of the U.S.A. 109: 16383-16388 (2012); Moerkercke et al., A plant thiolase involved in benzoic acid biosynthesis and volatile benzenoid production, The Plant J. 60: 292-302 (2009).\nThe coding sequences of PhPAL1, PhCNL, PhCHD, PhKAT, PhBSα (SEQ ID NO: 1) and PhBSβ (SEQ ID NO: 2) were PCR amplified with gene-specific primers (see Table 1 of FIG. 24) from petunia flower cDNAs and cloned into binary vector pCNHP using ClonExpress II One Step Cloning Kit (Vazyme Biotech Co., Piscataway, NJ). After sequence verification, plasmids were transformed into Agrobacterium tumefaciens strain GV3101. Single colonies for each construct were picked and cultured at 28° C. in 3 mL of LB medium supplied with 50 mg/L rifampicin, 50 mg/L gentamycin and 50 mg/L kanamycin to an OD600 of about 2.0. Bacterial cultures were pelleted, washed with a 10 mM MgCl2 solution containing 200 μM acetosyringone, and incubated in the same solution for additional 2 hours at room temperature. […]"}, "[1]": {"test": "Purified PhBS with short-chain fatty acyl-CoA substrates (GC-MS)", "type": "biochemical", "conditions": "1 mM fatty acyl-CoA, 28° C., 1 hour", "method": "Given the peroxisomal localization of PhBS, it was also analyzed if purified PhBS could be involved in metabolism of short-chain fatty acyl-CoA esters. […] All reactions were carried out at 28° C. for 1 hour."}, "[2]": {"test": "Substrate specificity of purified BS with benzoyl-CoA and hydroxycinnamoyl-CoA analogs (GC-MS)", "type": "biochemical", "conditions": "1:1 ratio between α and β subunits, NADPH; cinnamoyl-, para-coumaroyl-, caffeoyl-, feruloyl-, sinapoyl-CoA versus benzoyl-CoA", "text": "The response of internal standard in each run was set as 100%.\nTo analyze substrate specificity of PhBS, CoA esters were enzymatically synthesized from cinnamic acid, para-coumaric acid, caffeic acid, ferulic acid and sinapic acid using purified recombinant petunia 4-coumarate:CoA ligase (Ph4CL1) purified using the protocols described herein (FIG. 11B; triangle indicates the position of the Ph4CL1 protein). […] The experiment was repeated at least six times with similar results.\nTo test whether AtBS is involved in the biosynthesis of other aromatic aldehydes, hydroxycinnamoyl-CoA thioesters were incubated with purified AtBS enzyme, and the corresponding aldehyde formation was analyzed. Briefly, GC-MS analysis was performed of the products formed by AtBS from different hydroxycinnamoyl-CoA substrates. […] Shown in FIG. 22 are the combined EICs of mass units 106 (benzaldehyde), 128 (internal standard), 131 (cinnamaldehyde), and 178 (coniferaldehyde)."}}}
{"molecule": "B1", "values": [{"measurement": "benzylalcohol produced in infiltrated leaves", "setting": "N. benthamiana leaves", "value": "327.9±14.3", "unit": "nmol·g FW^−1"}, {"measurement": "product formed from hexanoyl-CoA", "setting": "[1]", "value": "only trace amounts of hexanal were detected"}, {"measurement": "substrate specificity (aldehyde formation from CoA esters)", "setting": "[2]", "value": "strict substrate selectivity for benzoyl-CoA"}]}
